Columns and labels:
hnRNP A1 [1] = biological target: hnRNP A1 (UniProt P09651); test: footprinting (Pb(II)); conditions: Footprinting: RNA refolded in 2 mM MgCl2, 80 mM NaCl, 20 mM Tris-HCl pH 7.2; probing at 37 C for 10 min; EMSA and pull-down buffers not in the material
hnRNP A1 [2] = biological target: hnRNP A1 (UniProt P09651); test: competition; conditions: Footprinting: RNA refolded in 2 mM MgCl2, 80 mM NaCl, 20 mM Tris-HCl pH 7.2; probing at 37 C for 10 min; EMSA and pull-down buffers not in the material

hnRNP A1, sequence (P09651 whole entry): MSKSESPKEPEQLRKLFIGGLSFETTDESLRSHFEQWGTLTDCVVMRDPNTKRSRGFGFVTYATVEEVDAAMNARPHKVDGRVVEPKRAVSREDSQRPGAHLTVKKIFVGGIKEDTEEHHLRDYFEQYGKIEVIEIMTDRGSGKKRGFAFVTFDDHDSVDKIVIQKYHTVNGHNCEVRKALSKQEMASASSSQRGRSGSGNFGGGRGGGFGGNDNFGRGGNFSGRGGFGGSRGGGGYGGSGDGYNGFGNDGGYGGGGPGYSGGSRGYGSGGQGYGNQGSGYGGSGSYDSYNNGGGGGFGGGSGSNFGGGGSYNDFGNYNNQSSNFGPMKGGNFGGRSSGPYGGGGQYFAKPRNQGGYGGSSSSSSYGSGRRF

Sequence | binding (hnRNP A1 [1]) | binding (hnRNP A1 [2])
GGUGUUCUAAGGUGCAUCUAGUGCAGAUAGUGAAGUAGAUUAGCAUCUACUGCCCUAAGUGCUCCUUCUGGCA [pri-miR-18a_73nt] | binds | 
GGCGUGCAGGGCCUGCUGAUGUUGAGUGCUUUUUGUUCUAAGGUGCAUCUAGUGCAGAUAGUGAAGUAGAUUAGCAUCUACUGCCCUAAGUGCUCCUUCUGGCAUAAGAAGUUAUGUAUUCAUCCAAUAAUUC [pri-miR-18a] |  | binds

From paper PMC2631628
